Where two headings read alike, the source gives them in different places.
T1: cynomolgus Tim-3 expressed on CHO cells (cynomolgus monkey)
T1 construct: also called cTim-3; Cyno Tim-3 (CHO)
T1 chain: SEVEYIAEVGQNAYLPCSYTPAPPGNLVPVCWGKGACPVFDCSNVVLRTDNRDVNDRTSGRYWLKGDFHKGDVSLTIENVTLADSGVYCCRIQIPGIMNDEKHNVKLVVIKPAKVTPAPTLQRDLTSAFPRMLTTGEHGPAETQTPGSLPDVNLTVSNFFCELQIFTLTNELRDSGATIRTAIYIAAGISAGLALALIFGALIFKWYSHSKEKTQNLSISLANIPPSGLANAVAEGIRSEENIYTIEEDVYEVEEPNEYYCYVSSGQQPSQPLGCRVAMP


Experiments:
[1] = target: T2, human PD-1 expressed on CHO cells (human, UniProt Q15116 25-288); assay: flow cytometry, CHO-human PD-1 cells; design: Bmax: unit not given here
T2 construct: also called hPD-1; CHO-hPD-1

[2] = target: T3, human Tim-3 expressed on the cell surface (human, UniProt Q8TDQ0 22-301); assay: flow cytometry, CHO-human Tim-3 cells; design: Bmax: unit not given here
T3 construct: also called hTim-3; Human Tim-3 (CHO)

[3] = target: T4, biotinylated recombinant human PD-1 (AcroBiosystems) (human, UniProt Q15116 25-167, limits assumed, biotinylated (sites not given)); assay: competition, flow cytometry: biotin-PD-1 binding to CHO-human PD-L1 cells
T4 construct: Bought protein; also called biotinylated PD-1

[4] = target: T3, human Tim-3 expressed on the cell …; assay: flow cytometry, CHO-human Tim-3 cells
[5] = target: T1, cynomolgus Tim-3 expressed on CHO cells; assay: flow cytometry, CHO-cyno Tim-3 cells
[6] = target: T5, recombinant human Tim-3-Fc (R&D Systems, 2365-TM) (human, UniProt Q8TDQ0 22-202, biotinylated in the Galectin-9 competition ELISA (sites not given)); assay: SPR Biacore, human Tim-3 Fc;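 note: antibodies captured on an anti-FLAG sensor surface, Tim-3-Fc flowed over as analyte at 25 °C in HBS-EP+ buffer, rates fit with a 1:1 Langmuir model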
T5 construct: Bought protein; also called huTim-3-Fc; biotinylated Tim-3-Fc; not shown: Fc of the bought fusion protein

[7] = target: T3, human Tim-3 expressed on the cell …; assay: flow cytometry, activated human CD4+ T cells
[8] = target: T5, recombinant human Tim-3-Fc (R&D …); assay: SPR Biacore, human Tim-3 Fc; KD estimated
[9] = target: T2, human PD-1 expressed on CHO cells; assay: hPD-1 binding titration (format not named; taken as cell binding)
[10] = target: T6, human Tim-3 (Biacore analyte; TIM-3-Fc or TIM-3-HIS, not said which) (human, UniProt Q8TDQ0 22-202); assay: SPR Biacore, human Tim-3 (Fc or HIS not said)
T6 construct: also called TIM-3 antigen; not shown: Fc or HIS tag

[11] = target: T3, human Tim-3 expressed on the cell …; assay: flow cytometry, CHO-human Tim-3 cells; remark: listed apart in the source
[12] = target: T1, cynomolgus Tim-3 expressed on CHO cells; assay: flow cytometry, CHO-cyno Tim-3 cells

| Kd [4] [nM] | Kd [5] [nM] | koff [6] [s⁻¹] | Kd [7] [nM] | Kd [8] [nM] | Kd [10] [nM] | koff [10] [s⁻¹] | kon [10] [M⁻¹ s⁻¹] | Kd [11] [nM] | Kd [12] [nM] | Binder | also measured |
| --- | --- | --- | --- | --- | --- | --- | --- | --- | --- | --- | --- |
| – | – | – | – | – | – | – | – | – | – | 1353-G10 scFvFc-zwB × 1649-A01 Hc zwA Y56D/TrstmbLC S56D (bispecific antibody, Tim-3 heavy chain with zwA CH3 mutations) scFv: not shown VH: EVQLVESGGGLVQPGGSLRLSCAASGFNISRYYIHWVRQAPGKGLEWVAGITPVRGDTEYADSVKDRFTISADTSKNTAYLQMNSLRAEDTAVYYCARGYVYRMWDSYDYWGQGTLVTVSS VL: not shown | Bmax [1]: 13300; Kd [1]: 2.3 nM; Bmax [2]: 11200; Kd [2]: 4.5 nM; IC50 [3]: 82 nM |
| 0.7 | 1.7 | 0.000863 | 2.3 | 5.4 | – | – | – | – | – | h22E11-VK2-28 × h22E11-VH1-69 (antibody, V domains shown, Humanized m22E11) VH: QVQLVQSGAEVKKPGSSVKVSCKVSGFSLTSYGVHWVRQAPGQGLEWLVVIWSDGSTTYNQKFQGRVTITKDESTSTVYMELSSLRSEDTAVYYCARQGGYRYDDAMDYWGQGTLVTVSS VL: DIVLTQSPLSLPVTPGEPASISCKASQSVDYDGNSYVNWYLQKPGQSPQLLIYAASNLESGVPDRFSGSGSGTDFTLKISRVEAEDVGVYYCQQSNEDPYTFGQGTKVEIK | – |
| 0.8 | 4.3 | 0.00109 | 9.2 | 7.9 | – | – | – | – | – | h22E11-VK2-28 × h22E11-VH4-30-4 (antibody, V domains shown, Humanized m22E11) VH: QVQLQESGPGLVKPSQTLSLTCTVSGFSLTSYGVHWIRQPPGKGLEWLVVIWSDGSTTYNPSLKSRVTISKDTSKNQVSLKLSSVTAADTAVYYCARQGGYRYDDAMDYWGQGTLVTVSS VL: DIVLTQSPLSLPVTPGEPASISCKASQSVDYDGNSYVNWYLQKPGQSPQLLIYAASNLESGVPDRFSGSGSGTDFTLKISRVEAEDVGVYYCQQSNEDPYTFGQGTKVEIK | – |
| 1 | 2.5 | 0.000863 | 6.3 | 5.5 | – | – | – | – | – | h22E11-VK4-1 × h22E11-VH1-69 (antibody, V domains shown, Humanized m22E11) VH: QVQLVQSGAEVKKPGSSVKVSCKVSGFSLTSYGVHWVRQAPGQGLEWLVVIWSDGSTTYNQKFQGRVTITKDESTSTVYMELSSLRSEDTAVYYCARQGGYRYDDAMDYWGQGTLVTVSS VL: DIVLTQSPDSLAVSLGERATINCKASQSVDYDGNSYVNWYQQKPGQPPKLLIYAASNLESGVPDRFSGSGSGTDFTLTISSLQAEDVAVYYCQQSNEDPYTFGQGTKVEIK | – |
| 0.6 | 2.3 | 0.000903 | 0.7 | 4.8 | – | – | – | – | – | h22E11-VK2-28 × h22E11-VH5-51 (antibody, V domains shown, Humanized m22E11) VH: EVQLVQSGAEVKKPGESLKISCKVSGFSLTSYGVHWVRQMPGKGLEWLVVIWSDGSTTYNPSFQGQVTISKDKSISTVYLQWSSLKASDTAMYYCARQGGYRYDDAMDYWGQGTLVTVSS VL: DIVLTQSPLSLPVTPGEPASISCKASQSVDYDGNSYVNWYLQKPGQSPQLLIYAASNLESGVPDRFSGSGSGTDFTLKISRVEAEDVGVYYCQQSNEDPYTFGQGTKVEIK | – |
| 0.8 | 5.4 | 0.000911 | 1.7 | 5.9 | – | – | – | – | – | h22E11-VK2-28 × h22E11-VH3-23 (antibody, V domains shown, Humanized m22E11) VH: EVQLLESGGGLVQPGGSLRLSCAVSGFSLTSYGVHWVRQAPGKGLEWLVVIWSDGSTTYNDSVKGRFTISKDNSKNTVYLQMNSLRAEDTAVYYCARQGGYRYDDAMDYWGQGTLVTVSS VL: DIVLTQSPLSLPVTPGEPASISCKASQSVDYDGNSYVNWYLQKPGQSPQLLIYAASNLESGVPDRFSGSGSGTDFTLKISRVEAEDVGVYYCQQSNEDPYTFGQGTKVEIK | – |
| 0.8 | 4.1 | 0.00101 | 3.3 | 6.7 | – | – | – | – | – | h22E11-VK2-28 × h22E11-5-IgG-HC (antibody, V domains shown, Humanized m22E11) VH: EVQLVESGGGLVQPGGSLRLSCAVSGFSLTSYGVHWVRQAPGKGLEWLVVIWSDGSTTYNSALKSRFTISKDNAKNSVYLQMNSLRAEDTAVYYCARQGGYRYDDAMDYWGQGTLVTVSS VL: DIVLTQSPLSLPVTPGEPASISCKASQSVDYDGNSYVNWYLQKPGQSPQLLIYAASNLESGVPDRFSGSGSGTDFTLKISRVEAEDVGVYYCQQSNEDPYTFGQGTKVEIK | – |
| – | – | – | – | – | – | – | – | – | – | 1353-G10 H1/vk1-39 IgG (antibody, V domains shown, IgG; also called Sample L) VH: EVQLVQSGAEVKKPGASVKVSCKASGYTFDSYGISWVRQAPGQGLEWMGWISAYNGNTNYAQKLQGRVTMTTDTSTNTAYMELRSLRSDDTAVYYCARDVDYGTGSGYWGQGTLVTVSS VL: DIQLTQSPSSLSASVGDRVTITCSGDALPKQYAYWYQQKPGKAPKLLIYKDTERPSGVPSRFSGSSSGTKVTLTISSLQPEDFATYYCQSADNSITYRVFGGGTKVEIK | Bmax [9]: 4940; Kd [9]: 12.9 nM |
| – | – | – | – | – | 66.9 | 0.0126 | 189000 | 0.2 | 1.9 | SRP1649-B06 (antibody, V domains shown, IgG with trastuzumab LC; HIS- and FLAG-tagged) VH: EVQLVESGGGLVQPGGSLRLSCAASGFNISNHAIHWVRQAPGKGLEWVADISPAVGYTDYADSVKDRFTISADTSKNTAYLQMNSLRAEDTAVYYCARGYVYRMWDSFDHWGQGTLVTVSS VL: not shown | – |
| – | – | – | – | – | 12.8 | 0.00243 | 191000 | 0.2 | 9.3 | SRP1649-G08 (antibody, V domains shown, IgG with trastuzumab LC; HIS- and FLAG-tagged) VH: EVQLVESGGGLVQPGGSLRLSCAASGFNISNYVIHWVRQAPGKGLEWVAAITPDGGITEYADSVKGRFAISADTSKNTAYLQMNSLRAEDTAVYYCARGYVYRMWDSYDYWGQGTLVTVSS VL: not shown | – |
| – | – | – | – | – | 18.8 | 0.00249 | 133000 | 0.2 | 9.4 | SRP1649-B09 (antibody, V domains shown, IgG with trastuzumab LC; HIS- and FLAG-tagged) VH: EVQLVESGGGLVQPGGSLRLSCAASGFNIRNNAIHWVRQAPGKGLEWVADITPAGGYTGYADSVKDRFTISADTSKNTAYLQMNSLRAEDTAVYYCARGYIYRMWDSLDYWGQGTLVTVSS VL: not shown | – |
| – | – | – | – | – | 13.5 | 0.00182 | 135000 | 0.2 | 12.4 | SRP1649-E08 (antibody, V domains shown, IgG with trastuzumab LC; HIS- and FLAG-tagged) VH: EVQLVESGGSLVQPGGSLRLSCAASGFSISNYVIHWVRQAPGKGLEWVADISPDGGFTDYADSVKDRFTISADTSKNTAYLQMNSLRAEDTAVYYCARGHVYRLWDSFDYWGRGTLVTVSS VL: not shown | – |
| – | – | – | – | – | 74.6 | 0.0205 | 275000 | 0.1 | 1 | SRP1649-D06 (antibody, V domains shown, IgG with trastuzumab LC; HIS- and FLAG-tagged) VH: EVQLVESGGGLVQPGGSLRLSCAASGFNIRNHAIHWVRQAPGKGLEWVADIAPAGGYTDYADSVKDRFTISADTSKNTAYLQMNSLRAEDTAVYYCARGYVYRMWDSYDYWGQGTLVTVSS VL: not shown | – |
| – | – | – | – | – | 23.9 | 0.00374 | 157000 | 0.2 | 2.2 | SRP1649-H02 (antibody, V domains shown, IgG with trastuzumab LC; HIS- and FLAG-tagged) VH: EVQLVESGGGLVQPGGSLRLSCAASGFNIRSYAIHWVRQAPGKGLEWVADITPAGGDTEYADSVKGRFTISADTSKNTAYLQMNSLRAEDTAVYYCARGYIYRMWDSYDYWGQGTLVTVSS VL: not shown | – |
| – | – | – | – | – | 10.6 | 0.00159 | 150000 | 0.1 | 2.2 | SRP1649-D11 (antibody, V domains shown, IgG with trastuzumab LC; HIS- and FLAG-tagged) VH: EVQLVESGGGLVQPGGSLRLSCAASGFNISGYVIHWVRQAPGKGLEWVADIIPTAGYTEYADSVKGRFTISADTSKNTAYLQMNSLRAEDTAVYYCARGYVYRMWDSFDYWGQGTLVTVSS VL: not shown | – |
| – | – | – | – | – | 49.7 | 0.014 | 281000 | 0.2 | 7.4 | SRP1649-E10 (antibody, V domains shown, IgG with trastuzumab LC; HIS- and FLAG-tagged) VH: EVQLVESGGGLVQPGGSLRLSCAASGFNISNNVIHWVRQAPGKGLEWVGDIMPGGGSTDYADSVKDRFTISADTSKNTAYLQMNSLRAEDTAVYYCARGYVYRMWDSYDYWGQGTLVTVSS VL: not shown | – |
| – | – | – | – | – | 13.7 | 0.00166 | 121000 | 0.2 | 0.8 | SRP1649-C05 (antibody, V domains shown, IgG with trastuzumab LC; HIS- and FLAG-tagged) VH: EVQLVESGGGLVQPGGSLRLSCAASGFNIGKHVIHWVRQAPGKGLEWVADIVPNGGYTEYADSVKDRFTISADTSKNTAYLQMNSLRAEDTAVYYCARGYVYRMWDSFDYWGQGTLVTVSS VL: not shown | – |
